{"source": "the nanobody polyreactivity screen of Harvey et al. (2022)"}
{"experiment": "yeast display, Sf9 membrane polyspecificity reagent, FACS + sequencing; frameworks hold sequencing errors", "summary_of_the_method": "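A synthetic nanobody library was expressed on Saccharomyces cerevisiae BJ5465 by galactose induction for 36–48 hours. The library was stained for 1 hour at 4 °C with 10% biotinylated, detergent-solubilized Sf9 membrane reagent and enriched with streptavidin microbeads before FACS. Low and high (top ~1%) gates were set on anti-HA fluorescence for expression and streptavidin fluorescence for reagent binding, and each polyreactivity label reflects the gate of origin.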"}
{"sequence": "QVQLVESGVGLVQAGGSLRLSCAASGRTFDYNAMGWYIQAPGKERELVAAITSSGGSTYYADSVKGRFTISRDNAKNTVYLQMNSLKPEDTAVYYCDTDGQSPYYIYYWGQGTQVTVSS", "polyreactivity (PSR sort gate)": "low polyreactivity"}
{"sequence": "QVQLVESGVGLVQAGGSLRLSCAASGRTFRPYALGWYRQAPGNERELVAAIDSGGSTYADSVKGRFTISRDNAKTTVYLQMNSLKPEDTAVYYSAAVTQTAWLWYGYWGQGTQVTVSS", "polyreactivity (PSR sort gate)": "low polyreactivity"}
{"sequence": "QVQLVESGVGLVQAGGSLRLSCAASGRTLSKNAMGWYRQAPWKERELVATMSSVGRTNYADSVKGRFTISRDNAKNTVYLQMNSLKPEDTAVYYCAARRFRGSYYWGQGTQVTVSS", "polyreactivity (PSR sort gate)": "high polyreactivity"}
{"sequence": "QVQLVESGVGLVQAGGSLRLSCAASGSIFGPYAMGWSRQAPGKERELVAAISLGGGSTYYAASVKGRFTISRDNAKNTVYLQMNSVKPEDTAVYYCNAEFSSGPYGYNGFDYWGQGTQVTVSS", "polyreactivity (PSR sort gate)": "low polyreactivity"}
{"sequence": "QVQLVESGVGLVQAGGSLRLSCAASGSIFPGYAMGWYRQAPGKEMELVAGITWSDARTYYADSVKVRFTISRDNAKNTVYLQMNSLKPEDTAVYYCAADYYYYERDYWGQGTQVTVSS", "polyreactivity (PSR sort gate)": "low polyreactivity"}
{"sequence": "QVQLVESGVGLVQAGGSLRLSCAASGSIFPHYAMGWYRQAPGKERELVAAISSGTSTNYADSVKGRFTISRDNAKNTVYLQMNSLKPEDTAVYFCAADYYSGYDSVDGDYNYWGQGTQVTVSS", "polyreactivity (PSR sort gate)": "low polyreactivity"}
{"sequence": "QVQLVESGVGLVQAGGSLRLSCAASGSIFRYYAMGWYRQAPGKEREFVADITWSGTSTYYADSVKGRFTISRDNAKNTVYFQMNSLKPEDTAVFYCNKYRSYWSGPSYWREYDYWGQGTQVTVSS", "polyreactivity (PSR sort gate)": "high polyreactivity"}
{"sequence": "QVQLVESGVGLVQAGGSLRLSCAASGSILSGYAMGWYRQAPGKERELVAAINDGGGTNYADSVKGRFTISRDNAKNTVYLQMNSLKPEDTAVYYCNKVYYFQRRLTPVYLMDYWGQGTQVTVSS", "polyreactivity (PSR sort gate)": "low polyreactivity"}
{"sequence": "QVQLVESGVGLVQAGGSLRLSCAASGSISDVYAMGVYRQAPGKERDLVAAITSGASTYYADSVKGRFTISLDNAKNTVYLQINSLKPEDTAVYYCSAGYSDWYYAAYNSWGQGTQVTVST", "polyreactivity (PSR sort gate)": "low polyreactivity"}
{"sequence": "QVQLVESGVGLVQAGGSLRLSCAASGSNSGLYAMGWYRQAPGKERELVAAIRWSGGSTRYADSVKGRFTISRDNAKNTVYLLMNSLKPEDTAVYYCAADFYSKFVRFGYWGQGTQVTVSS", "polyreactivity (PSR sort gate)": "high polyreactivity"}
{"sequence": "QVQLVESGVGLVQAGGSLRLSCAASGSTFAKYAMGWYRQAPGKERELVASIRLSGGSTYYADSVKGRFTISRDNAKNTVYLQMNSLKPEDTAVYYCAADVIVFYYAPNYWGDIEYGYWGQGTQVTVSS", "polyreactivity (PSR sort gate)": "low polyreactivity"}
{"sequence": "QVQLVESGVGLVQAGGSLRLSCAASGSTFDDYAMGWYRQAPGKERELVAAINKTGGSTNYADSVKGRFTISRDNAKNTVYLQMNSLKPEDNAVYYCAADGSNYSASVAAFPYRVDYWGQGTQVTVSS", "polyreactivity (PSR sort gate)": "low polyreactivity"}
{"sequence": "QVQLVESGVGLVQAGGSLRLSCAASGSTFGGYAMGWYRQAPGKDTEFVAAISYDGDSTYYADSVKGRFTISRDNAKNTVYLQMNSLKPEDTAVYYCAADISYHYGVWYFYYWGQGTQVTVSS", "polyreactivity (PSR sort gate)": "low polyreactivity"}
{"sequence": "QVQLVESGVGLVQAGGSLRLSCAASGSTFKGYTMGWYRQAPGKERELVAAITYSGGRTYYADSVKGRFTISRDNAKNTVYLQMNSLKPEDTAVYYCAARQQWVKVEYDYWGQGTQVTVSS", "polyreactivity (PSR sort gate)": "high polyreactivity"}
{"sequence": "QVQLVESGVGLVQAGGSLRLSCAASGSTFRYYGMGWYRQAPGKEMELVAAISSSGGSTYYADSLKGRFTISRDNAKNTVSLQMNSLKPEDTAVYYCAAGSRFVSSRLYYWGQGTQVTVSS", "polyreactivity (PSR sort gate)": "high polyreactivity"}
{"sequence": "QVQLVESGVGLVQAGGSLRLSCAASGYTFAYNAMGWYRPAPGKERELVAAITSRAGSTHYADSVKGRFTISRDNAKNTVYLQMNSLKPEDTAVYYCAAKRYNRLRSYRYSDREDYWGQGTQVTVSS", "polyreactivity (PSR sort gate)": "high polyreactivity"}
{"sequence": "QVQLVESGVGLVQAGGSLRLSCAATGRIFDLYAMGWYRQAPGKEREFVAAISGRGGSTYYADSVKGRFTISRDNAKNTVYLEMNSLKPEDTAVYYCNAKRSLYGRYGYWGQGSQVTVSS", "polyreactivity (PSR sort gate)": "high polyreactivity"}
{"sequence": "QVQLVESGVGLVQAGGSLRLSCAPSGRIFIYYAMGWYRQAPGKERELVATITASGDSTYYADSVKGRFTISRDNAKNTVYFQMNSLKPEDTAVYYCAADDGDYYEVDYWGQGTQVTVSS", "polyreactivity (PSR sort gate)": "low polyreactivity"}
{"sequence": "QVQLVESGVGLVQAGGSLRLSCASSGILVYNAMAWYRQAPGKERELVAAISARGGRTYYADSVKGRFTISRDNAKNTVYLQMNSLKPEDTAVYYCATLETTGVNYWGQGTQVTVSS", "polyreactivity (PSR sort gate)": "high polyreactivity"}
{"sequence": "QVQLVESGVGLVQAGGSLRLSCASSGLTFNYYAIGWYRQAPGKERELVAAISSDGRTDYADSVKGRFTISRDNAKNTVYLQMNSLKPEDTAFYSCAVEYQSPDDYWGQGTQVTVSS", "polyreactivity (PSR sort gate)": "low polyreactivity"}
{"sequence": "QVQLVESGVGLVQAGGSLRLSCASSGSIFAYNTMGWYRQAPGKEREFVAAISWLGGSTYYADSVKGRFTISRDNAKNTVYLQMNSLKPEDTAVYYCNARYRTTFYTRRYDYWGQGTQVTVSS", "polyreactivity (PSR sort gate)": "low polyreactivity"}
{"sequence": "QVQLVESGVGLVQAGGSLRLSCASSGSTCGYYTMGWYRQAPGKERELVAAITKTGGGTYYADSVKGRFTISRDNAKNTDYLQMNSLKPEDTAVYYCAAYSRFTSDYWGQGTQVTVSS", "polyreactivity (PSR sort gate)": "high polyreactivity"}
{"sequence": "QVQLVESGVGLVQAGGSLSLSCAASGSTFTRYAMGWYRQAPGKERELVASISRSGNTYYADSVKGRFTISRDNAKNTVYLQMNSLKPEDSAVYYCAAKRKSYYSYNFDYWGQGTQVTVSS", "polyreactivity (PSR sort gate)": "high polyreactivity"}
{"sequence": "QVQLVESGVGLVQAGGSLSLSCAPSGSTFTSYAMGWYRQAPGKEMELVAAITSRRGTYYADSVKGRFTISRDNAKNTVYLEMTSLKPEVTAVYYCAARAPYKKYPYVKWYDYWGQGTQVTVSS", "polyreactivity (PSR sort gate)": "high polyreactivity"}
{"sequence": "QVQLVESGVGLVQAGGTLRLSGAASGLIFEYYAMGWYRQPPGKETELVAAITTSGGSTYYADSVKGRFTISRDIAKNTVYLQMNSLKPEDTAVYDCAAVGVRSRYYGYDYWGQGTLVTVSS", "polyreactivity (PSR sort gate)": "high polyreactivity"}
{"sequence": "QVQLVESGVGLVQAGRNLRLSCAASGIIFYLNAMGWYRQAPGKERELVAAISNGTSTNYADSVKGRFTISRDNAKNTVYLQMNSLKPEDTAVYYCAADDLRYNSRSSNYRGDSWGQGTQVTVSS", "polyreactivity (PSR sort gate)": "low polyreactivity"}
{"sequence": "QVQLVESGVGLVQARGSLRLSCAASGYIFTIYAMGWYRHAPGKERELVAAITWSGATTYYADSVKGRFTISRDNAKNTVYLQMNILKPEDTAVYYCNADYWHYYEDYDSWGQGTQVTVSS", "polyreactivity (PSR sort gate)": "low polyreactivity"}
{"sequence": "QVQLVESGVGLVQARGSLRLSCASSGSIFLVYAMGWYRQAPGKESELVAAISRSGRTYADSVKGRFTISRDNAKNTVYLQMNSLKPVDTAVYYCAAVTKRRFEGDYWGQGTQVTVSS", "polyreactivity (PSR sort gate)": "high polyreactivity"}
{"sequence": "QVQLVESGVGLVQARGSLRLSSAASGITLPKYAMGWYRQEHGKERELVAAISRRGGITYYADSVKGRFTISRDNAKNTVYVQMNSLKPEDTAVYYCAADRTDTRGFDYWGQGTQVTVSS", "polyreactivity (PSR sort gate)": "high polyreactivity"}
{"sequence": "QVQLVESGVRLVQSGGSLRLSCASSGFTIWRYAMGWYRQAPGKERELVAAISRSGTRTYYADSVKGRFTISRDNAKNTVYLQMNSLKPEDTAVYYCAADGLSLAYEHDYWGQGTQVTVSS", "polyreactivity (PSR sort gate)": "high polyreactivity"}
{"sequence": "QVQLVESIGGLVQAGGSLRLSCAASGSIFQPYAMRWYRQAPGKERELVAAITTSGGRTYYADSVKGRFTMSRDNAKNTVYLQMNSLKPEDTAVYYCAADWGIGDYDYWGQGTQVTVSS", "polyreactivity (PSR sort gate)": "high polyreactivity"}
{"sequence": "QVQLVESPGGLVKAGGSLRLSCDASGRTFYGYAMGWYRQPPGKEREFVAAITWSGSSTNYADSVKGRFTISRDNATNSVYLQMNSLKPDDTAVYYCAASYYAPYWSMDNWGQGTQETVSS", "polyreactivity (PSR sort gate)": "high polyreactivity"}
{"sequence": "QVQLVESRAGLVQAGGSLRLSCAASGSTFGYYTMGWYRQAPGKERELVAAITWSGGSSYYADSVKGRFTISRDNAKKTVYLEMNSLKAEDTAVYFGAADDYWTPFGYWGQGTQVTVSA", "polyreactivity (PSR sort gate)": "low polyreactivity"}
{"sequence": "QVQLVESRGALVQAGGSLRLSCAASGYIFRAYAMGWYRPAPGKERELVAAISSRGGSTYYADSVKGRFTISRDNAKNTVYLQMNSLKPEDTAVYYCAAAYRQPYIGYGYWGQGTQVTVSS", "polyreactivity (PSR sort gate)": "high polyreactivity"}
{"sequence": "QVQLVESRGALVQAGGSLRLSCAASGYIFYSNAMRWYRQEPGKERELVAAITSGRGSTYYADSVKGRFTISRDNAKNTVYLQMNSLIPEDTAVYYCDVSIGRYPYRYGYWGQGTQVTVSS", "polyreactivity (PSR sort gate)": "high polyreactivity"}
{"sequence": "QVQLVESRGGLVPAGGSLRLSCAASGITFYHYAIGWYRQAPVKERELVAAISRSGGSTSYADSVKGRLTISRDNAKITVYLEMNSLIPEDTAVYYCAARLVRESEPLGYWGQGTQVTVSS", "polyreactivity (PSR sort gate)": "high polyreactivity"}
{"sequence": "QVQLVESRGGLVQAGCSLRLRCAASGFIFSWYAMGWYRHAPGKERELDAAISASGTSTYYADSVKGRFTISRDNAKNTVYLQMNSLKPEDTAVYYCAAEFVTEYLYGFVYEYDSWGQGTQVTVSS", "polyreactivity (PSR sort gate)": "low polyreactivity"}
{"sequence": "QVQLVESRGGLVQAGGRLRLSCAASGIIFPRNAMGWYRQAPGKERELVAAITNTGSTKYADSVKGRFTISRDNEKNTVYLHMNSLKPEDTAVYFCAKELCSVPSPSLYDYWGQGTQVTVSS", "polyreactivity (PSR sort gate)": "low polyreactivity"}
{"sequence": "QVQLVESRGGLVQAGGSLRLSCAASGFIFWRYAMGWYRQAPGKERELVASITYSGGRTYYADSVKGRFTISRDNAKNTVYLQMNILKPEDTAVYYCATARYRYHYYSWGQGTQVTVSS", "polyreactivity (PSR sort gate)": "high polyreactivity"}
{"sequence": "QVQLVESRGGLVQAGGSLRLSCAASGFTFYSNAMGWYRQAPGKERELVAAIAKRGGSTYYADSVKGRFTISRDNAKNTVYLQMISLKPEDTAVYYCNKDYYARKYDYWGQGTLVTVSS", "polyreactivity (PSR sort gate)": "high polyreactivity"}
{"sequence": "QVQLVESRGGLVQAGGSLRLSCAASGITFDVYDMGWYRQAPGKERELVASINSGGGITYYADSVKGRFTISRDNAKNTVYLQMNSLKPEDTAVFYCADDTWGSSWYDLFRETSDYWGQVTQVTVSS", "polyreactivity (PSR sort gate)": "low polyreactivity"}
